Measured values: PMC11081419, “Structural basis of chemokine recognition by the class A3 tick evasin EVA‐ACA1001” (Protein Science : A Publication of the Protein Society, 2024)

B1: EVA‐ACA1001 (untagged, for crystallization and cell assays) (natural protein)
chain: ENGEGTTQPDYDNSTDYYNYEDFKCTCPAPHLNNTNGTVMKPIGCYYTCNVTRCTAPDTYPCYNLTEHQAKNLTTSPTTLCAVGNCDHGICVPNGTKELCFKAPNLEE
B2: CCL18 (ligand, human, UniProt P55774 21-89, looked up)
chain: AQVGTNKELCCLVYTSWQIPQKFIVDYSETSPQCPKPGVILLTKRGRQICADPNKKWVQKYISDLKLNA
notes: CCL18, human CC chemokine
B3: CCL1 (ligand, human, UniProt P22362 24-96, looked up)
chain: KSMQVPFSRCCFSFAEQEIPLRAILCYRNTSSICSNEGLIFKLKRGKEACALDTVGWVQRHRKMLRHCPSKRK
notes: CCL1, human CC chemokine
B4: CCL3 (ligand, human, UniProt P10147 24-92, looked up)
chain: SLAADTPTACCFSYTSRQIPQNFIADYFETSSQCSKPGVIFLTKRSRQVCADPSEEWVQKYVSDLELSA
notes: CCL3, human CC chemokine
B5: CCL4 (ligand, human, UniProt P13236 24-92, looked up)
chain: APMGSDPPTACCFSYTARKLPRNFVVDYYETSSLCSQPAVVFQTKRSKQVCADPSESWVQEYVYDLELN
notes: CCL4, human CC chemokine
B6: CCL5 (ligand, human, UniProt P13501 24-91, looked up)
chain: SPYSSDTTPCCFAYIARPLPRAHIKEYFYTSGKCSNPAVVFVTRKNRQVCANPEKKWVREYINSLEMS
notes: CCL5, human CC chemokine
B7: CCL8 (ligand, human, UniProt P80075 24-99, looked up)
chain: QPDSVSIPITCCFNVINRKIPIQRLESYTRITNIQCPKEAVIFKTKRGKEVCADPKERWVRDSMKHLDQIFQNLKP
notes: CCL8, human CC chemokine
B8: CCL11 (ligand)
chain: not shown
notes: CCL11, human CC chemokine
B9: CCL13 (ligand)
chain: not shown
notes: CCL13, human CC chemokine
B10: CCL15 (ligand)
chain: QFTNDAETELMMSKLPLENPVVLNSFHFAADCCTSYISQSIPCSLMKSYFETSSECSKPGVIFLTKKGRQVCAKPSGPGVQDCMKKLKPYSI
B11: CCL16 (ligand, human, UniProt O15467 24-120, looked up)
chain: QPKVPEWVNTPSTCCLKYYEKVLPRRLVVGYRKALNCHLPAIIFVTKRNREVCTNPNDDWVQEYIKDPNLPLLPTRNLSTVKIITAKNGQPQLLNSQ
notes: CCL16, human CC chemokine; The E. coli preparation is described for the crystal; also called human chemokine CCL16; not shown: His6, N-terminal, cleaved; SUMO, N-terminal, cleaved
B12: CCL17 (ligand, human, UniProt Q92583 24-94, looked up)
chain: ARGTNVGRECCLEYFKGAIPLRKLKTWYQTSEDCSRDAIVFVTVQGRAICSDPNNKRVKNAVKYLQSLERS
notes: CCL17, human CC chemokine
B13: CCL19 (ligand, human, UniProt Q99731 22-98, looked up)
chain: GTNDAEDCCLSVTQKPIPGYIVRNFHYLLIKDGCRVPAVVFTTLRGRQLCAPPDQPWVERIIQRLQRTSAKMKRRSS
notes: CCL19, human CC chemokine
B14: CCL21 (ligand, human, UniProt O00585 24-134, looked up)
chain: SDGGAQDCCLKYSQRKIPAKVVRSYRKQEPSLGCSIPAILFLPRKRSQAELCADPKELWVQQLMQHLDKTPSPQKPAQGCRKDRGASKTGKKGKGSKGCKRTERSQTPKGP
notes: CCL21, human CC chemokine
B15: EVA‐ACA1001, Avi-tagged and biotinylated (SPR construct) (natural protein)
chain: B1 chain
modifications: biotin on the AVI tag (BirA ligase)
notes: EVA-ACA1001 (Evasin P991), class A3 evasin of Amblyomma cajennense; mass of the untagged protein 11,920 Da (calculated 11,921 Da with five disulfides); also called Evasin P991; full‐length EVA‐ACA1001; not shown: His6, N-terminal, cleaved; SUMO, N-terminal, cleaved
B16: CCL22 (ligand, human, UniProt O00626 25-93, looked up)
chain: GPYGANMEDSVCCRDYVRYRLPLRVVKHFYWTSDSCPRPGVVLLTFRDKEICADPRVPWVKMILNKLSQ
notes: CCL22, human CC chemokine
B17: CCL23 (ligand)
chain: RVTKDAETEFMMSKLPLENPVLLDRFHATSADCCISYTPRSIPCSLLESYFETNSECSKPGVIFLTKKGRRFCANPSDKQVQVCMRMLKLDTRIKTRKN
B18: CCL24 (ligand, human, UniProt O00175 27-119, looked up)
chain: VVIPSPCCMFFVSKRIPENRVVSYQLSSRSTCLKAGVIFTTKKGQQFCGDPKQEWVQRYMKNLDAKQKKASPRARAVAVKGPVQRYPGNQTTC
notes: CCL24, human CC chemokine
B19: CCL26 (ligand, human, UniProt Q9Y258 24-94, looked up)
chain: TRGSDISKTCCFQYSHKPLPWTWVRSYEFTSNSCSQRAVIFTTKRGKKVCTHPRKKWVQKYISLLKTPKQL
notes: CCL26, human CC chemokine
B20: CCL27 (ligand, human, UniProt Q9Y4X3 25-112, looked up)
chain: FLLPPSTACCTQLYRKPLSDKLLRKVIQVELQEADGDCHLQAFVLHLAQRSICIHPQNPSLSQWFEHQERKLHGTLPKLNFGMLRKMG
notes: CCL27, human CC chemokine
B21: CCL7 (ligand)
chain: not shown
notes: CCL7, human CC chemokine

How the values were obtained:
[1] = target: B7; assay: cell-based or functional assay
[2] = target: B5; assay: cell-based or functional assay
[3] = target: B7; assay: cell-based or functional assay; remark: listed apart in the source
[4] = target: B4; assay: cell-based or functional assay
[5] = target: B15; assay: SPR; screen at a single chemokine concentration: biotinylated Avi-tagged evasin immobilised on a streptavidin-coated CAPture chip (80 response units); 500 nM chemokine flowed for 240 s at 30 uL/min, 600 s dissociation; 25°C; Biacore T100; 10 mM HEPES, 500 mM NaCl, 0.002% Tween 20, 3 mM EDTA, 1 mg/mL carboxymethyl dextran, pH 7.5; details: both partners purified
[6] = target: B15; assay: SPR; affinity determination: biotinylated Avi-tagged evasin immobilised on a streptavidin-coated CAPture chip; five two-fold increasing chemokine concentrations (31.25-500 nM), 240 s at 30 uL/min, 600 s dissociation; 1:1 binding model; 25°C; 10 mM HEPES, 500 mM NaCl, 0.002% Tween 20, 3 mM EDTA, 1 mg/mL carboxymethyl dextran, pH 7.5; three independent experiments (Table 1 caption: multiple-cycle kinetics); details: both partners purified
[7] = target: B1; assay: crystal structure; EVA-ACA1001 and CCL16 mixed 1:1.2, complex purified on Superdex 75 in 10 mM HEPES pH 7.5, 150 mM NaCl; crystals from 0.1 M HEPES pH 7.0, 0.5% v/v Jeff ED-2001, 1.1 M sodium malonate; two complexes per asymmetric unit; details: both partners purified
[8] = target: B14; assay: SPR; affinity determination: biotinylated Avi-tagged evasin immobilised on a streptavidin-coated CAPture chip; five two-fold increasing chemokine concentrations (31.25-500 nM), 240 s at 30 uL/min, 600 s dissociation; 1:1 binding model; 25°C; 10 mM HEPES, 500 mM NaCl, 0.002% Tween 20, 3 mM EDTA, 1 mg/mL carboxymethyl dextran, pH 7.5; three independent experiments (Table 1 caption: multiple-cycle kinetics); details: both partners purified

B1
IC50 of EVA-ACA1001 for inhibition of CCL8-stimulated activation of CCR5 (cAMP assay); blocks CCL8 with CCR5 [1]: ~189 nM
IC50 of EVA-ACA1001 for inhibition of CCL4 (80 nM)-stimulated activation of CCR5 (inhibition of forskolin-induced cAMP, CAMYEL BRET biosensor, Flp-In-CHO cells); blocks CCL4 with CCR5 [2]: 84 nM
pIC50 of EVA-ACA1001 for inhibition of CCL4 (80 nM)-stimulated activation of CCR5 (inhibition of forskolin-induced cAMP, CAMYEL BRET biosensor, Flp-In-CHO cells); blocks CCL4 with CCR5 [2]: 7.07 -log(IC50, M)
IC50 of EVA-ACA1001 for inhibition of CCL8 (100 nM)-stimulated activation of CCR5 (inhibition of forskolin-induced cAMP, CAMYEL BRET biosensor, Flp-In-CHO cells); blocks CCL8 with CCR5 [3]: 188 nM
pIC50 of EVA-ACA1001 for inhibition of CCL8 (100 nM)-stimulated activation of CCR5 (inhibition of forskolin-induced cAMP, CAMYEL BRET biosensor, Flp-In-CHO cells); blocks CCL8 with CCR5 [3]: 6.51 -log(IC50, M)
IC50 of EVA-ACA1001 for inhibition of CCL3 (60 nM)-stimulated activation of CCR5 (inhibition of forskolin-induced cAMP, CAMYEL BRET biosensor, Flp-In-CHO cells); blocks CCL3 with CCR5 [4]: 94 nM
pIC50 of EVA-ACA1001 for inhibition of CCL3 (60 nM)-stimulated activation of CCR5 (inhibition of forskolin-induced cAMP, CAMYEL BRET biosensor, Flp-In-CHO cells); blocks CCL3 with CCR5 [4]: 7.02 -log(IC50, M)

B2
binding result [5]: binds

B3
Kd [6]: 21.1 nM
pKd [6]: 7.71 -log(Kd, M)

B4
Kd [6]: 1.08 nM
pKd [6]: 8.99 -log(Kd, M)

B5
Kd [6]: 1.18 nM
pKd [6]: 8.93 -log(Kd, M)

B6
Kd [6]: 0.27 nM
pKd [6]: 9.55 -log(Kd, M)

B7
Kd [6]: 4.76 nM
pKd [6]: 8.34 -log(Kd, M)

B8
Kd [6]: 0.38 nM
pKd [6]: 9.49 -log(Kd, M)

B9
Kd [6]: 0.39 nM
pKd [6]: 9.41 -log(Kd, M)

B10
Kd [6]: 107 nM
pKd [6]: 7.02 -log(Kd, M)

B11
Kd [6]: 0.54 nM
pKd [6]: 9.34 -log(Kd, M)
stoichiometry N [7]: 1

B12
Kd [6]: 1.01 nM
pKd [6]: 8.99 -log(Kd, M)

B13
Kd [6]: 1.31 nM
pKd [6]: 8.9 -log(Kd, M)

B14
pKd [6]: 8.19 -log(Kd, M)

B15
Kd [8]: 6.5 nM

B16
Kd [6]: 1.29 nM
pKd [6]: 8.9 -log(Kd, M)

B17
Kd [6]: 1.17 nM
pKd [6]: 8.93 -log(Kd, M)

B18
Kd [6]: 8.9 nM
pKd [6]: 8.22 -log(Kd, M)

B19
Kd [6]: 1.68 nM
pKd [6]: 8.77 -log(Kd, M)

B20
Kd [6]: 84.8 nM
pKd [6]: 7.07 -log(Kd, M)

B21
binding result [5]: binds
